Measured values as given in patent US20200199244A1 (published 2020).
Positions count from the first letter of the chain named. Several values for one entry are separate records, joined by “and”; a condition that tells them apart may be missing. Equal values may be shown once.

What was measured:
[1] = molecular target: human CD40 on primary human cells (blood CD20+ B cells, tonsillar B cells, monocyte-derived dendritic cells) (human, UniProt P25942 21-277); assay: flow cytometry on human whole blood, PE-streptavidin detection, gate on CD20+ B cells
Method: (§1) 100 μl from each blood sample was aliquoted to 12×75 mm tubes and washed 3 times with FACS buffer (0.5% FBS/PBS/0.1% sodium azide). Tubes were centrifuged for 5 minutes at 1500 rpm, and supernatants were decanted between washes. Following the washes, tubes were placed on ice and incubated with human IgG for 5 minutes to block non-specific binding via Fc receptors.
(§2) For biotin-conjugated dAb detection, PE-labeled streptavidin (Invitrogen) and APC-labeled CD20 antibody (clone 2H7, BD Biosciences) were added to tubes and incubated 30 minutes at room temperature.
(§3) To lyse red blood cells and fix white blood cells following detection antibody incubation, FACS Lysing Solution (BD Biosciences) was added to all tubes, and samples were incubated for 15 minutes at room temperature. Samples were centrifuged and resuspended in FACS Lysing Solution, and analyzed by flow cytometry on a BD FACSCanto™, gating on CD20+ B cells for analysis. For marmoset samples, the CD20 antibody was not cross reactive; therefore analysis was performed on all lymphocytes as identified by forward and side scatter properties (size).

[2] = molecular target: T1, marmoset CD40 on blood lymphocytes (marmoset, UniProt Q3LRP1 21-274); assay: flow cytometry on whole blood, PE-streptavidin detection, all lymphocytes by scatter
T1 construct: whole, on cells
Method: as §1, §2, §3

[3] = molecular target: T2, cynomolgus monkey CD40 on CD20+ B cells in blood (Macaca fascicularis (cynomolgus monkey), UniProt P25942 21-277 (human entry)); assay: flow cytometry on whole blood, PE-streptavidin detection, gate on CD20+ B cells
T2 construct: also called cynoCD40
T2 chain: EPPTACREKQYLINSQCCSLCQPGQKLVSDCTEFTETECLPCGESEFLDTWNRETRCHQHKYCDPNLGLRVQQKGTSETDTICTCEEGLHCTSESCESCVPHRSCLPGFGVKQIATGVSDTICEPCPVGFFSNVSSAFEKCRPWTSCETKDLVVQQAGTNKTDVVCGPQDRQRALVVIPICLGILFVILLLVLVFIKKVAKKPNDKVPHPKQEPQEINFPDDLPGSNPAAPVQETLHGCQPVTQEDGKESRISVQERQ
Method: as §1, §2, §3

[4] = molecular target: T3, rhesus macaque CD40 on CD20+ B cells in blood (rhesus macaque, UniProt F6SNI1 21-278); assay: as above
T3 construct: whole, on cells; also called rhesus CD40
Method: as §1, §2, §3

biotinylated human CD40 = molecular target: T4, biotinylated human CD40 (human, UniProt P25942 21-193, limits assumed, biotinylated (sites not given)); assay: SPR, BIAcore 3000, 10 µM dAb alone over biotinylated human CD40
T4 construct: Biotinylated human CD40 (supplied by BMS), about 600 RU immobilised on a streptavidin BIAcore chip; also called hCD40

[5] = molecular target: T5, wild type cynomolgus monkey CD40 Fc fusion (cynomolgus monkey; human); assay: SPR ProteOn XPR36, CD40-Fc captured, dAb analyte
T5 construct: also called wt-cyno-CD40; wt-cCD40; not shown: human IgG1 Fc
T5 chain: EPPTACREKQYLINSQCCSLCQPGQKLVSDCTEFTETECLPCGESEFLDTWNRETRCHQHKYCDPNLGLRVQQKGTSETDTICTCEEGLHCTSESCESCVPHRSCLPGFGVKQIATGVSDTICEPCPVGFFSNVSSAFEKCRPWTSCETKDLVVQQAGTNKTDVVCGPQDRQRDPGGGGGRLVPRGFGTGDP

[6] = molecular target: T6, human CD40 (W109L, L121P) Fc fusion (human, UniProt P25942 21-193); assay: SPR ProteOn XPR36, CD40-Fc captured, dAb analyte
T6 construct: As m1 with W109L and L121P; also called hCD40-M4; not shown: human IgG1 Fc

[7] = molecular target: T7, human CD40 (W109L) Fc fusion (human, UniProt P25942 21-193); assay: SPR ProteOn XPR36, CD40-Fc captured, dAb analyte
T7 construct: As m1 with W109L; also called hCD40-M2; not shown: human IgG1 Fc

[8] = molecular target: T8, human CD40 (H76R) Fc fusion (human, UniProt P25942 21-193); assay: SPR ProteOn XPR36, CD40-Fc captured, dAb analyte
T8 construct: As m1 with H76R; also called hCD40-M1; not shown: human IgG1 Fc

[9] = molecular target: T9, wild type human CD40 Fc fusion (human, UniProt P25942 21-193); assay: SPR ProteOn XPR36, CD40-Fc captured, dAb analyte
T9 construct: also called wt-hCD40; not shown: human IgG1 Fc

[10] = molecular target: T10, human CD40 (H76R, W109L, L121P) Fc fusion (human); assay: SPR ProteOn XPR36, CD40-Fc captured, dAb analyte
T10 construct: As m1 with H76R, W109L and L121P; also called hCD40-M5; not shown: human IgG1 Fc
T10 chain: T5 chain with S95A, L106S, R142H, Q172L

[11] = molecular target: T11, human CD40 (W109R) Fc fusion (Chimpanzee CD40) (human, UniProt P25942 21-193); assay: SPR ProteOn XPR36, CD40-Fc captured, dAb analyte
T11 construct: As m1 with W109R (residue of chimpanzee CD40); also called hCD40-M3; not shown: human IgG1 Fc

[12] = molecular target: T5, wild type cynomolgus monkey CD40 Fc …; assay: SPR ProteOn XPR36;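 note: surface plasmon resonance with CD40-Fc fusions captured through their Fc on an anti-human IgG chip, sensorgrams reference-subtracted against surfaces lacking CD40-Fc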
Method: (§4) Assays were performed on a BioRad ProteOn XPR36 SPR instrument. The SPR surfaces were prepared by immobilizing 8 μg/ml anti-human IgG(Fc) antibody (Biacore/GE Healthcare) in 10 mM sodium acetate pH 4.5 on a BioRad GLC sensor chip using standard ethyl(dimethylaminopropyl) carbodiimide (EDC)/N-hydroxysuccinimide (NHS) chemistry, with ethanolamine blocking. The running buffer for immobilization and kinetic binding analysis was 10 mM sodium phosphate, 130 mM sodium chloride, 0.05% tween 20, pH 7.1. CD40-Fc fusion proteins at concentrations of 20 μg/ml were captured in the vertical orientation on these surfaces via the Fc tail, and reference surfaces lacking CD40-Fc proteins were used for reference subtraction. […] The surfaces were regenerated in both horizontal and vertical orientations with 30 s pulses of 3 M MgCl₂ followed by running buffer at 60 μl/min. Sensogram data was double-referenced and then fitted to a 1:1 Langmuir model using BioRad ProteOn Manager V.2.1.0.38 software, to determine the association rate constant (ka), the dissociation rate constant (kd), and the equilibrium dissociation constant (KD).

[13] = molecular target: T6, human CD40 (W109L, L121P) Fc fusion; assay: SPR ProteOn XPR36;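 note: surface plasmon resonance with CD40-Fc fusions captured through their Fc on an anti-human IgG chip, sensorgrams reference-subtracted against surfaces lacking CD40-Fc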
Method: as §4

[14] = molecular target: T7, human CD40 (W109L) Fc fusion; assay: SPR ProteOn XPR36;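 note: surface plasmon resonance with CD40-Fc fusions captured through their Fc on an anti-human IgG chip, sensorgrams reference-subtracted against surfaces lacking CD40-Fc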
Method: as §4

[15] = molecular target: T10, human CD40 (H76R, W109L, L121P) Fc …; assay: SPR ProteOn XPR36;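 note: surface plasmon resonance with CD40-Fc fusions captured through their Fc on an anti-human IgG chip, sensorgrams reference-subtracted against surfaces lacking CD40-Fc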
Method: as §4

[16] = molecular target: T11, human CD40 (W109R) Fc fusion …; assay: SPR ProteOn XPR36
Method: as §4

[17] = molecular target: T12, wild type human CD40 Fc fusion (human, UniProt P25942 21-193); assay: SPR, ProteOn XPR36; CD40-Fc captured, dAb analyte; 1:1 fit; repeat
T12 construct: also called wt-hCD40; not shown: human IgG1 Fc

[18] = molecular target: T13, human CD40 (W109L) Fc fusion (human, UniProt P25942 21-193); assay: SPR, ProteOn XPR36; CD40-Fc captured, dAb analyte
T13 construct: Same construct as wt-hCD40 with W109L; also called hCD40-M2; hCD40 M2 (W109L); not shown: human IgG1 Fc

[19] = molecular target: T14, wild type cynomolgus monkey CD40 Fc fusion (cynomolgus monkey (Macaca …)); assay: SPR, ProteOn XPR36; CD40-Fc captured, dAb analyte
T14 construct: also called wt-cCD40; wt-cyno-CD40; not shown: human IgG1 Fc
T14 chain: T5 chain

[20] = molecular target: T15, human CD40 (H76R, W109L, L121P) Fc fusion (human); assay: SPR, ProteOn XPR36; CD40-Fc captured, dAb analyte
T15 construct: Same construct as wt-hCD40 with H76R, W109L and L121P; also called hCD40-M5; hCD40-M5 (H76R, W109L, L121P); not shown: human IgG1 Fc
T15 chain: T5 chain with S95A, L106S, R142H, Q172L

[21] = molecular target: T16, human CD40 (W109L, L121P) Fc fusion (human, UniProt P25942 21-193); assay: SPR, ProteOn XPR36; CD40-Fc captured, dAb analyte
T16 construct: Same construct as wt-hCD40 with W109L and L121P; also called hCD40-M4; hCD40 M4 (W109L, L121P); not shown: human IgG1 Fc

[22] = molecular target: T17, human CD40 (W109R) Fc fusion (Chimpanzee CD40) (human, UniProt P25942 21-193); assay: SPR, ProteOn XPR36; CD40-Fc captured, dAb analyte
T17 construct: Same construct as wt-hCD40 with W109R (the residue of chimpanzee CD40); also called hCD40-M3; hCD40 M3 (W109R); not shown: human IgG1 Fc

[23] = molecular target: T18, human CD40 (H76R) Fc fusion (human, UniProt P25942 21-193); assay: SPR, ProteOn XPR36; CD40-Fc captured, dAb analyte; 1:1 fit;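 for Kd: CD40-Fc captured on anti-human IgG(Fc) surface of a GLC chip, buffer pH 7.1, sensorgrams double-referenced against surfaces without CD40-Fc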;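 for koff: CD40-Fc captured on anti-human IgG(Fc) surface of a GLC chip, buffer pH 7.1, sensorgrams double-referenced against surfaces without CD40-Fc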;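 for kon: CD40-Fc captured on anti-human IgG(Fc) surface of a GLC chip, buffer pH 7.1, sensorgrams double-referenced against surfaces without CD40-Fc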
T18 construct: also called hCD40-M1; hCD40 M1 (H76R); not shown: human IgG1 Fc

[24] = molecular target: T12, wild type human CD40 Fc fusion; assay: as above
Method: as §4

[25] = molecular target: T2, cynomolgus monkey CD40 on CD20+ B cells …; assay: flow cytometry on whole blood, anti-PEG detection, gate on CD20+ B cells
Method: as §1
(§5) Samples were washed once in FACS buffer, then incubated with an APC-labeled CD20 antibody (clone 2H7, BD Biosciences) and PE labeled-anti-mouse IgG (Fcγ1 specific; Calbiochem) for an additional 30 minutes on ice.
as §3

[26] = molecular target: T3, rhesus macaque CD40 on CD20+ B cells in …; assay: as above
Method: as §1, §5, §3

[27] = molecular target: T1, marmoset CD40 on blood lymphocytes; assay: flow cytometry on whole blood, anti-PEG detection, all lymphocytes by scatter
Method: as §1, §5, §3

B1: BMS3h38-2-biotin (other)
VH: EVQLLASGGGLVQPGGSLRLSCAASGFTFEEEEMIWVRQAPGKGLEWVSAISGSGGSTYYADSVKGRFTISRDNSKNTLYLQMNSLRAEDTAVYYCGKEPFRYDYWGQGTLVTVSS
modifications: biotin-conjugated; site not stated
notes: Biotin conjugate of dAb BMS3h-38-2; also called biotin-conjugated dAb
binding result [1]: binds
binding result [2]: no binding
binding result [3]: no binding
binding result [4]: no binding

B2: BMS3h-106 (other)
VH: EVQLLESGGGLVQPGGSLRLSCAASGFTFSTYHMQWVRQAPGKGLEWVSMIDADGLGTYYADSVKGRFTISRDNSKNTLYLQMNSLRAEDTAVYYCAKPGPQFGQFDYWGQGTLVTVSS
notes: Domain antibody (dAb), single human VH domain
Single dAb RU (biotinylated human CD40): 165 RU

B3: BMS3h-107 (other)
VH: EVQLLESGGGLVQPGGSLRLSCAASGFTFSGYDMQWVRQAPGKGLEWVSTISASGVFTYYADSVKGRFTTSRDNSKNTLYLQMNSLRAEDTAVYYCAKYPNRFALNNFDYWGQGTLVTVSS
notes: as for B2
Single dAb RU (biotinylated human CD40): 35 RU

B4: BMS3h-217 (other)
VL: DIQMTQSPSSLSASVGDRVTITCRASHFIGTLLSWYQQKPGKAPKLLITYGSLLQSGVPSRFSGSGSGTDFTLTISSLQPEDFATYYCGQGVLWPATFGQGTKVEIKR
notes: Domain antibody (dAb), single human V kappa domain
Single dAb RU (biotinylated human CD40): 85 RU

B5: BMS3h-217-16 (other)
VL: B4 VL with G41R, A96P
notes: domain antibody (dAb), single VK domain
Kd [5]: 400 pM
Kd [6]: 350 pM
Kd [7]: 410 pM
Kd [8]: 350 pM
Kd [9]: 220 pM and 260 pM
Kd [10]: 500 pM
Kd [11]: 270 pM

B6: BMS3h-217-5 (other)
VL: B4 VL with S10F, G30A, A96P
notes: as for B5
Kd [5]: 900 pM
Kd [6]: 930 pM
Kd [7]: 990 pM
Kd [8]: 940 pM
Kd [9]: 470 pM and 480 pM
Kd [10]: 1000 pM
Kd [11]: 720 pM

B7: BMS3h-217-23 (other)
VL: B4 VL with T31S, Q38V, K103T
notes: as for B5
Kd [5]: 1900 pM
Kd [6]: 1600 pM
Kd [7]: 2000 pM
Kd [8]: 1600 pM
Kd [9]: 780 pM and 1500 pM
Kd [10]: 2200 pM
Kd [11]: 1200 pM

B8: BMS3h-38-2 (other)
VH: B1 VH
notes: domain antibody (dAb), single VH domain
binding result [12]: no binding (tested: 405 nM)
binding result [13]: no binding (tested: 405 nM)
binding result [14]: no binding (tested: 405 nM)
binding result [15]: no binding (tested: 405 nM)
binding result [16]: no binding (tested: 405 nM)
Kd [8]: 7200 pM
Kd [9]: 5100 pM and 8000 pM

B9: BMS3h-38-2 (other)
VH: B1 VH
notes: Anti-human CD40 domain antibody (dAb), single VH domain
Kd [17]: 8040 pM
koff [17]: 0.00114 s⁻¹
kon [17]: 142000 M⁻¹ s⁻¹
binding result [18]: no binding (tested: dAb tested up to 405 nM)
binding result [19]: no binding (tested: dAb tested up to 405 nM)
binding result [20]: no binding (tested: dAb tested up to 405 nM)
binding result [21]: no binding (tested: dAb tested up to 405 nM)
binding result [22]: no binding (tested: dAb tested up to 405 nM)
Kd [23]: 7150 pM
koff [23]: 0.001 s⁻¹
kon [23]: 140000 M⁻¹ s⁻¹
Kd [24]: 5070 pM
koff [24]: 0.000608 s⁻¹
kon [24]: 120000 M⁻¹ s⁻¹

B10: BMS3h-56-5C-40L (other)
VH: EVQLLESGGGLVQPGGSLRLSCAASGFTFRDYEMWWVRQAPGKGLERVSAINPQGTRTYYADSVMGRFTISRDNSKNTLYLQMNSLRAEDTAVYYCAKLPFTFDDWGQGTLVTVSS
modifications: PEGylated; attachment residue not stated
notes: PEGylated form of dAb BMS3h-56-5; also called PEGylated anti-human CD40 dAb
binding result [25]: no binding
binding result [26]: no binding
binding result [27]: no binding

B11: BMS3h38-2C-P40Br (other)
VH: B1 VH
modifications: PEGylated; attachment residue not stated
notes: PEGylated form of dAb BMS3h-38-2; also called PEGylated anti-human CD40 dAb
binding result [25]: no binding
binding result [26]: no binding
binding result [27]: no binding
